Patent US7351690B2, “Knockout identification of target-specific sites in peptides” (priority 2000, dated 2008)
Square brackets hold non-standard residues; d marks the D form. Ends that are not written are not given here. Nle = CCCC[C@H](N)C(=O)O

Key:
MC1-R = target: T1, MC1-R (Mus musculus, UniProt Q01727); test: competitive inhibition binding assay, 125I-NDP-alpha-MSH, B-16 mouse melanoma cell membranes; settings: 1 μM test peptide; 0.4 nM 125I-NDP-alpha-MSH; B-16 mouse melanoma cell membranes
T1 construct: membranes prepared from hMC3-R, hMC4-R, hMC5-R, and B-16 mouse melanoma cells (containing MC1-R); endogenous in cells; host or cells: B-16 mouse melanoma cells (membranes)
Summary of the method: (§1)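 Membranes from hMC3-R, hMC4-R, hMC5-R or B-16 cells (MC1-R) incubated 90 min at room temperature with 0.4 nM 125I-NDP-alpha-MSH and rhenium-complexed test peptide, typically 1 μM, in HEPES pH 7.2 with Mg/Ca/K. Filter-bound radioactivity counted; % inhibition of specific binding (1 μM alpha-MSH defines nonspecific), triplicate means.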

hMC3-R = target: T2, hMC3-R (Homo sapiens, UniProt P41968); test: competitive inhibition binding assay, 125I-NDP-alpha-MSH, hMC3-R membranes; settings: 1 μM test peptide; 0.4 nM 125I-NDP-alpha-MSH; hMC3-R membranes
T2 construct: expressed in transfected cells
Summary of the method: as §1

hMC5-R = target: T3, hMC5-R (Homo sapiens, UniProt P33032); test: competitive inhibition binding assay, 125I-NDP-alpha-MSH, hMC5-R membranes; settings: 1 μM test peptide; 0.4 nM 125I-NDP-alpha-MSH; hMC5-R membranes
T3 construct: expressed in transfected cells
Summary of the method: as §1

hMC4-R = target: T4, hMC4-R (Homo sapiens, UniProt P32245); test: competitive inhibition binding assay, 125I-NDP-alpha-MSH, hMC4-R membranes; settings: 1 μM test peptide; 0.4 nM 125I-NDP-alpha-MSH; hMC4-R membranes
T4 construct: expressed in transfected cells
Summary of the method: as §1

T1 sequence (Q01727 whole entry): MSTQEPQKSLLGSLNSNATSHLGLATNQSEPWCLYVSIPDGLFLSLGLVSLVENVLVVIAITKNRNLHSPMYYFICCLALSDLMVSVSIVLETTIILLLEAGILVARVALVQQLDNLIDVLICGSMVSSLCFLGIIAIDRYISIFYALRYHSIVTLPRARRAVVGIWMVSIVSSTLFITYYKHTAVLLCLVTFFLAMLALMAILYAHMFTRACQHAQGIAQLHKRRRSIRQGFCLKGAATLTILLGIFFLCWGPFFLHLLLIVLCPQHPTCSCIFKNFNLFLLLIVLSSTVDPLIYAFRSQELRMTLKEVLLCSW
T2 sequence (P41968 whole entry): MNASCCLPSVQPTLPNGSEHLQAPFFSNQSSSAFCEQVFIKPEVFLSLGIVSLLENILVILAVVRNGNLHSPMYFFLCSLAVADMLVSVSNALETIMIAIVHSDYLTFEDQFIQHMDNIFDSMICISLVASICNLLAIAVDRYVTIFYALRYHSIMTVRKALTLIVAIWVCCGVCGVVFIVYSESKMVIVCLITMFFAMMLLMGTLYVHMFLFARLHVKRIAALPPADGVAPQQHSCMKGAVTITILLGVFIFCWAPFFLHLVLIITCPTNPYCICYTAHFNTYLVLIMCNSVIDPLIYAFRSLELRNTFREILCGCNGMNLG
T4 sequence (P32245 whole entry): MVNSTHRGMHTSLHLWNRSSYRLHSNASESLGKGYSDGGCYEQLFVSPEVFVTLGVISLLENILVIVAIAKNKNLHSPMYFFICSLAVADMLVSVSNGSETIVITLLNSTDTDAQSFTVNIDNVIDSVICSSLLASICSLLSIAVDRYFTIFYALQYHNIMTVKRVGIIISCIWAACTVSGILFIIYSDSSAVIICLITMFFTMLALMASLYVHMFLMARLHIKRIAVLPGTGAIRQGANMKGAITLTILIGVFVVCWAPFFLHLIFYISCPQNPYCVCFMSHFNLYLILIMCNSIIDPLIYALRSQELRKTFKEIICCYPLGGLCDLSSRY
T3 sequence (P33032 whole entry): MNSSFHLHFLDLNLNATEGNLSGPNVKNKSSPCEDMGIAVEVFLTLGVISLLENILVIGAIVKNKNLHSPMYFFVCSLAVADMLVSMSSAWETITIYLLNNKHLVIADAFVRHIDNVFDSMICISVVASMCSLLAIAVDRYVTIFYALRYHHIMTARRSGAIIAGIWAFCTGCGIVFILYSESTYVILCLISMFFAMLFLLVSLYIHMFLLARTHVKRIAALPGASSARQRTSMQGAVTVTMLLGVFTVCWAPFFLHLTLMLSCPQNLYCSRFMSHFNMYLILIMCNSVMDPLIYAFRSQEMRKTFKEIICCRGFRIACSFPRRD

Substance	% Inhibition at 1 μM at Melanocortin Receptor 1 (MC1-R) [%]	% Inhibition at 1 μM at Melanocortin Receptor 3 (hMC3-R) [%]	% Inhibition at 1 μM at Melanocortin Receptor 5 (hMC5-R) [%]	% Inhibition at 1 μM at Melanocortin Receptor 4 (hMC4-R) [%]
Tyr-Val-Nle-Gly-His-Cys-D-Phe-Arg-Trp-Asp-Arg-Phe-NH2 [3-7] (YV[Nle]GHC[dF]RWDRF-NH2; numbers in words are those of the source; also: oxorhenium(V) N3S1 chelate complex (Re=O))	39	50	56	28
Tyr-Val-Nle-Cys-His-D-Phe-Arg-Trp-Asp-Arg-Phe-NH2 (YV[Nle]CH[dF]RWDRF-NH2; not fully specified (bridges); printed as Tyr-Val-Nle-Cys-His-D-Phe-Arg-Trp-Asp-Arg-Phe-NH2; numbers in words are those of the source; also: oxorhenium(V) N3S1 chelate complex (Re=O)) [5-8]	95	89	98	86
Tyr-Val-Nle-Gly-Cys-His-Phe-Arg-Trp-Asp-Arg-Phe-NH2 (YV[Nle]GCHFRWDRF-NH2; not fully specified (bridges); printed as Tyr-Val-Nle-Gly-Cys-His-Phe-Arg-Trp-Asp-Arg-Phe-NH2; numbers in words are those of the source; also: oxorhenium(V) N3S1 chelate (Re=O) with Cys) [4-8]	13	33	45	−1
Tyr-Val-Nle-Gly-His-Phe-Cys-Arg-Trp-Asp-Arg-Phe-NH2 (YV[Nle]GHFCRWDRF-NH2; numbers in words are those of the source; also: oxorhenium(V) N3S1 chelate (Re=O) with Cys) [4-6]	−8	5	24	−2
